Results on 6 proteins are retold here after US9890400B2, “Method of production of 2,4-dihydroxybutyric acid” (ADISSEO FRANCE S.A.S., priority 2012, dated 2018).

Substrate in series [1]: O=CC(=O)O
Description: Malyl-CoA lyase assay coupled to citrate synthase / DTNB. It counts as biochemical, M. extorquens. Particulars: other: pH 7.5, 37° C., 1 mM acetyl-CoA. The text has this:
Construction of plasmids containing wild-type genes coding for malyl-CoA lyase: The DNA sequences of the mcl genes coding for malyl-CoA lyase in M. extorquens (Arps et al., 1993) and Rhodobacter capsulatus (Meister et al., 2005) were optimized for the expression in Escherichia coli using the GENEius software (Eurofins). The optimized sequences were synthesized by Eurofins MWG OPERON® adding NheI and EcoRI restriction sites upstream of the start codon and downstream of the stop codon of mcl, respectively, which allowed direct cloning of the synthesized DNA fragments into the pET28a+ vector (Novagen) using T4 DNA ligase (Biolabs). […]
Malyl-CoA lyase activity was assayed using a method adapted from (Meister et al., 2005). Malyl-CoA synthesis by malyl-CoA lyase was coupled to the citrate synthase-catalyzed release of coenzyme A which was monitored by its spontaneous reaction with DTNB. […]
The reaction mixture according to Assay 1 contained 50 mM MOPS/KOH (pH 7.5), 0.25 mM DTNB, 5 mM MgCl2, 1 mM acetyl-CoA, 20 U/mL citrate synthetase (all products from Sigma), and appropriate amounts of purified malyl-CoA lyase or cell extract. […] The reactions were followed by the characteristic absorption of DNTB at 412 nm (εDNTB+CoA=13.6 mM^−1 cm^−1) in a microplate reader (BioRad 680XR).

Substrate in series [2]: O=CC[C@H](O)C(=O)O
Description: purified protein, by the assay type. It counts as biochemical, Sulfolobus tokodaii. As to conditions: other: oxidative sense, 1 mM NADP, 0.5 mM coenzyme A, pH 9, 37° C. The protocol: NCBI references of the utilized mcr and sucD protein sequences, and the references for the corresponding natural and synthetic DNA sequences are listed in Table 2.
To purify St-Mcr, frozen cell pellets of expression cultures were resuspended in 0.5 mL of breakage buffer (50 mM Hepes, 300 mM NaCl, pH 7.5) and broken open by four successive rounds of sonication (sonication interval: 20 sec, power output: 30%, sonicator: Bioblock Scientific, VibraCell™ 72437). Cell debris were removed by centrifuging the crude extracts for 15 min at 4° C. at 13000×g and retaining the clear supernatant. Native proteins of E. coli were removed by heat precipitation at 85° C. during 30 min followed by centrifugation at 13000×g. […]
Assay 1 (Reaction Scheme): glyoxylate+acetyl-CoA→malyl-CoA+acetate Malyl-CoA lyase: (L)-Malyl-CoA+NADPH→(L)-Malate semialdehyde+Coenzyme A+NADP Malyl-CoA reductase: Assay 2 (Reaction Scheme): (L)-Malate semialdehyde+Coenzyme A+NADP→(L)-Malyl-CoA+NADPH The reaction mixture according to Assay 1 contained 50 mM MOPS/KOH (pH 7.5), 10 mM glyoxylate, 4 mM acetyl-CoA, 5 mM MgCl2, 0.25 mM NADPH (all products from Sigma), 5 U/mL of malyl-CoA lyase, and appropriate amounts of purified malyl-CoA reductase or cell extract. […] The reactions were followed by the characteristic absorption of NADPH at 340 nm (εNADPH=6.22 mM^−1 cm^−1) in a microplate reader (BioRad 680XR). […]

Substrate in series [3]: O=CCCC(=O)O
Kind of series: purified protein, by the assay type. As to conditions: other: oxidative sense, 1 mM NADP, 0.5 mM coenzyme A, pH 9, 37° C., pH 9.0.

Substrate in series [4]: CC(C)(COP(=O)(O)OP(=O)(O)OC[C@H]1O[C@@H](n2cnc3c(N)ncnc32)[C@H](O)[C@@H]1OP(=O)(O)O)[C@@H](O)C(=O)NCCC(=O)NCCSC(=O)CCC(=O)O
Description: purified protein, by the assay type. Particulars: other: reductive sense, succinyl-CoA added directly, NADPH, pH 7.5, 37° C., pH 7.5.

Substrate in series [5]: O=CC[C@H](O)C(=O)O
Description: Malate semialdehyde reductase activity. Particulars: other: malate semialdehyde, NADH or NADPH, pH 7.5, 30° C., average of at least two independent experiments. It counts as biochemical, Metallosphaera sedula. The protocol: (§1) Test for Malate Semialdehyde Reductase Activity: (L)-Malate semialdehyde+NAD(P)H→(L)-2,4-dihydroxybutyric acid+NAD(P) Reaction scheme:
(§2) The assay mixture contained 200 mM Hepes (pH 7.5), 50 mM KCl, 5 mM MgCl2, 0.24 mM NADH or NADPH, and appropriate amounts of purified enzyme or cell extract. Reactions were started by adding 10 mM (L)-malate semialdehyde (malate semialdehyde was prepared freshly for each test, see Example 3). Enzymatic assays were carried out at 30° C. in 96-well flat bottomed microtiter plates in a final volume of 250 μL. The reactions were followed by the characteristic absorption of NAD(P)H at 340 nm (εNADPH=6.22 mM^−1 cm^−1) in a microplate reader (BioRad 680XR).
Site-directed mutagenesis was carried out using the oligonucleotide pairs listed in Table 6 and the pET28-Mse-SSR plasmid as the template. Point mutations to change the amino acid sequences were introduced by PCR (Phusion 1U, HF buffer 20% (v/v), dNTPs 2.5 mM, direct and reverse primers 1 μM each, template plasmid 200 ng, water). When possible, plasmids created by PCR contained new restriction sites (introduced using silent mutations) in addition to the functional mutation to facilitate identification of mutated clones. The PCR products were digested by DpnI at 37° C. for 2×2 h to remove template DNA, and transformed into NEB DH5-α competent E. coli cells (NEB). The mutated plasmids were identified by restriction site analysis and verified to carry the desired mutations by DNA sequencing.

Substrate in series [6]: O=CC[C@H](O)C(=O)O
Kind of series: Malate semialdehyde reductase activity. It counts as biochemical, Metallosphaera sedula. Particulars: other: malate semialdehyde, NADH or NADPH, pH 7.5, 30° C., average of at least two independent experiments. The protocol:
To identify a suitable 2,4 DHB dehydrogenase, beta-hydroxyacid dehydrogenases from different biological sources were tested for their ability to reduce malate semialdehyde. […] The genes YPR1, 4hbdh, yqhD, and Ms-SSR were amplified using primers listed in Table 5 and cloned into vector pET28 (restriction enzymes see Table 5) yielding plasmids pET28-Sce-YPR1, pET28-Pgi-4-hbdh, pET28-Eco-yqhd and pET28-Mse-SSR, respectively. The proteins were expressed and purified as described in Example 1.
as §1, §2
This is another data set of the same source.

B1: M. extorquens malyl-CoA lyase (Me-Mcl), wild type, SEQ ID No. 1 (Methylorubrum extorquens AM1) (protein)
chain: MSFTLIQQATPRLHRSELAVPGSNPTFMEKSAASKADVIFLDLEDAVAPDDKEQARKNIIQALNDLDWGNKTMMIRINGLDTHYMYRDVVDIVEACPRLDMILIPKVGVPADVYAIDVLTTQIEQAKKREKKIGFEVLIETALGMANVEAIATSSKRLEAMSFGVADYAASTRARSTVIGGVNADYSVLTDKDEAGNRQTHWQDPWLFAQNRMLVACRAYGLRPIDGPFGDFSDPDGYTSAARRCAALGFEGKWAIHPSQIDLANEVFTPSEAEVTKARRILEAMEEAAKAGRGAVSLDGRLIDIASIRMAEALIQKADAMGGK
notes: full length 324 aa
As usually defined, the Km is the concentration of substrate that gives half-maximal velocity. What is called Vmax is the top rate of the reaction or transport when substrate is in excess. Take B1: in series [1], the Km is given as 0.5 mM and the Vmax was 36 μmol/(min mg prot).

B2: Sulfolobus tokodaii malonyl-CoA reductase (St-Mcr), wild type, SEQ ID No. 7 (Sulfurisphaera tokodaii str. 7) (protein)
chain: MILMRRTLKAAILGATGLVGIEYVRMLSNHPYIKPAYLAGKGSVGKPYGEVVRWQTVGQVPKEIADMEIKPTDPKLMDDVDIIFSPLPQGAAGPVEEQFAKEGFPVISNSPDHRFDPDVPLLVPELNPHTISLIDEQRKRREWKGFIVTTPLCTAQGAAIPLGAIFKDYKMDGAFITTIQSLSGAGYPGIPSLDVVDNILPLGDGYDAKTIKEIFRILSEVKRNVDEPKLEDVSLAATTHRIATIHGHYEVLYVSFKEETAAEKVKETLENFRGEPQDLKLPTAPSKPIIVMNEDTRPQVYFDRWAGDIPGMSVVVGRLKQVNKRMIRLVSLIHNTVRGAAGGGILAAELLVEKGYIEK
notes: full length 359 aa
Turning to B2, the values for the Km in series [2], in series [3] and in series [4] were 0.25 mM, 1.15 mM and 0.2 mM, respectively. Also, the Vmax in series [2] is 0.1 µmol/min/mg; in series [3], 1.7 µmol/min/mg; in series [4], 0.98 ± 0.17 µmol/min/mg.

B3: Metallosphaera sedula succinic semialdehyde reductase (Ms-SSR) mutant H39R, SEQ ID No. 32 (Metallosphaera sedula DSM 5348; H39R) (protein)
chain: MKAAVLHTYKEPLSIEDVNISQPKAGEVKIKVKATGLCRSDVNVFEGKTPVPPPVVAGHEISGIVEEVGPGVTRVKPGDRVISAFIHPCGKCGNCVAGKENLCETFSQVRLKGVMPDGTSRLSKDGKEIRTFLGGGFAEYAIVGENALTRVPEDMDLEKVAVLGCAGLTGYGAISSSKIEPGDTVAVIGVGGVGLSTIQLLRASGAGRIIAVGTKKWKLDRAMELGATDVVNSKEIDPVKAIKEITGGGPQVVIEAGGNEDTIHMALDSVRIGGKVVLVGLPPATAMIPIRVASIVRGGIEVVGNYGGRPRVDMPKLLELVRQGRYDPSRLVTGRFRLEEINEAVKMLEEGEAIRSLIIP
B3: the Km in series [5] is given as 1 mmol/L.

B4: Metallosphaera sedula succinic semialdehyde reductase (Ms-SSR) double mutant H39R N43H, SEQ ID No. 36 (Metallosphaera sedula DSM 5348; H39R/N43H) (protein)
chain: MKAAVLHTYKEPLSIEDVNISQPKAGEVKIKVKATGLCRSDVHVFEGKTPVPPPVVAGHEISGIVEEVGPGVTRVKPGDRVISAFIHPCGKCGNCVAGKENLCETFSQVRLKGVMPDGTSRLSKDGKEIRTFLGGGFAEYAIVGENALTRVPEDMDLEKVAVLGCAGLTGYGAISSSKIEPGDTVAVIGVGGVGLSTIQLLRASGAGRIIAVGTKKWKLDRAMELGATDVVNSKEIDPVKAIKEITGGGPQVVIEAGGNEDTIHMALDSVRIGGKVVLVGLPPATAMIPIRVASIVRGGIEVVGNYGGRPRVDMPKLLELVRQGRYDPSRLVTGRFRLEEINEAVKMLEEGEAIRSLIIP
As for B4, the Km in series [5] stood at 1 mmol/L.

B5: Metallosphaera sedula succinic semialdehyde reductase (Ms-SSR) mutant N43H, SEQ ID No. 34 (Metallosphaera sedula DSM 5348; N43H) (protein)
chain: MKAAVLHTYKEPLSIEDVNISQPKAGEVKIKVKATGLCHSDVHVFEGKTPVPPPVVAGHEISGIVEEVGPGVTRVKPGDRVISAFIHPCGKCGNCVAGKENLCETFSQVRLKGVMPDGTSRLSKDGKEIRTFLGGGFAEYAIVGENALTRVPEDMDLEKVAVLGCAGLTGYGAISSSKIEPGDTVAVIGVGGVGLSTIQLLRASGAGRIIAVGTKKWKLDRAMELGATDVVNSKEIDPVKAIKEITGGGPQVVIEAGGNEDTIHMALDSVRIGGKVVLVGLPPATAMIPIRVASIVRGGIEVVGNYGGRPRVDMPKLLELVRQGRYDPSRLVTGRFRLEEINEAVKMLEEGEAIRSLIIP
Turning to B5, in series [5], the Km is listed as 5 mmol/L.

B6: Metallosphaera sedula succinic semialdehyde reductase (Ms-SSR), wild type, SEQ ID No. 16 (Metallosphaera sedula DSM 5348) (protein)
chain: MKAAVLHTYKEPLSIEDVNISQPKAGEVKIKVKATGLCHSDVNVFEGKTPVPPPVVAGHEISGIVEEVGPGVTRVKPGDRVISAFIHPCGKCGNCVAGKENLCETFSQVRLKGVMPDGTSRLSKDGKEIRTFLGGGFAEYAIVGENALTRVPEDMDLEKVAVLGCAGLTGYGAISSSKIEPGDTVAVIGVGGVGLSTIQLLRASGAGRIIAVGTKKWKLDRAMELGATDVVNSKEIDPVKAIKEITGGGPQVVIEAGGNEDTIHMALDSVRIGGKVVLVGLPPATAMIPIRVASIVRGGIEVVGNYGGRPRVDMPKLLELVRQGRYDPSRLVTGRFRLEEINEAVKMLEEGEAIRSLIIP
notes: full length 360 aa
On to B6, for which the Km in series [6] was 4 mmol/L.
